Columns and labels:
[1] = molecular target: T1, purified EBV gp350/220 (recombinant EBV gp350 ectodomain) (Epstein-Barr virus, UniProt P03200); assay: Indirect ELISA on recombinant EBV gp350 ectodomain; format: binding; details: purified antibodies 10 μg/ml
T1 construct: purified EBV gp350 ectodomain protein (AA 4-863); purchased Immune Technology Corporation
Method: Briefly, immunoplates (Costar 3590; Corning Incorporated) were coated with 50 μl of 0.5 μg/ml recombinant EBV gp350 ectodomain (Immune Technology Corporation) diluted in 1× phosphate buffered saline (PBS, pH 7.4) and incubated overnight at 4° C. After washing three times with 1×PBS containing 0.05% (v/v) Tween 20 (washing buffer), plates were blocked with 100 μl washing buffer containing 2% (w/v) bovine serum albumin (BSA) (blocking buffer) then incubated for 1 h at room temperature and washed as above. 100 μl of hybridoma supernatant or 50 μl of 10 μg/ml purified mAbs was added to each well (in triplicate) and incubated for 2 h at room temperature. […] The plates were washed as described above, followed by incubation with 50 μl of goat anti-mouse IgG HRP-conjugated secondary antibody (1:2,000 diluted in 1×PBS) at room temperature for 1 h. The plates were washed again and 100 μl of chromogenic substrate 2,2′-azino-bis (3-ethylbenzothiazoline-6-sulphonic acid) (ABTS, Life Science Technologies) was added. The reaction was stopped using 100 μl of ABTS peroxidase stop solution containing 5% sodium dodecyl sulfate (SDS) in water. The absorbance was read at an optical density of 405 nm using an ELISA reader (Molecular Devices). All experiments were performed in triplicate and confirmed in three independent experiments.
ELISA binding of anti-gp350 and anti-gH/gL to soluble gp350 and gH/gL proteins was performed. Soluble EBV gp350 and gH/gL proteins were used as the target antigen at 0.5 μg/ml. 1× phosphate buffered saline (PBS) was used as negative (not shown) control. Bound antibodies were detected using HRP-conjugated anti-mouse or anti-human IgG (1:2,000).

[2] = molecular target: T2, gp350 protein on gp350 expressing CHO cells (Epstein-Barr virus, UniProt P03200); assay: Flow cytometry of CHO cells stably expressing EBV gp350; format: binding; details: concluded from flow cytometry and immunoblot
T2 construct: stably co-transfected with full-length pCAGGS-gp350/220 and pCI-puro vector; expressed in transfected cells; host or cells: CHO cells
T2 sequence (P03200 whole entry): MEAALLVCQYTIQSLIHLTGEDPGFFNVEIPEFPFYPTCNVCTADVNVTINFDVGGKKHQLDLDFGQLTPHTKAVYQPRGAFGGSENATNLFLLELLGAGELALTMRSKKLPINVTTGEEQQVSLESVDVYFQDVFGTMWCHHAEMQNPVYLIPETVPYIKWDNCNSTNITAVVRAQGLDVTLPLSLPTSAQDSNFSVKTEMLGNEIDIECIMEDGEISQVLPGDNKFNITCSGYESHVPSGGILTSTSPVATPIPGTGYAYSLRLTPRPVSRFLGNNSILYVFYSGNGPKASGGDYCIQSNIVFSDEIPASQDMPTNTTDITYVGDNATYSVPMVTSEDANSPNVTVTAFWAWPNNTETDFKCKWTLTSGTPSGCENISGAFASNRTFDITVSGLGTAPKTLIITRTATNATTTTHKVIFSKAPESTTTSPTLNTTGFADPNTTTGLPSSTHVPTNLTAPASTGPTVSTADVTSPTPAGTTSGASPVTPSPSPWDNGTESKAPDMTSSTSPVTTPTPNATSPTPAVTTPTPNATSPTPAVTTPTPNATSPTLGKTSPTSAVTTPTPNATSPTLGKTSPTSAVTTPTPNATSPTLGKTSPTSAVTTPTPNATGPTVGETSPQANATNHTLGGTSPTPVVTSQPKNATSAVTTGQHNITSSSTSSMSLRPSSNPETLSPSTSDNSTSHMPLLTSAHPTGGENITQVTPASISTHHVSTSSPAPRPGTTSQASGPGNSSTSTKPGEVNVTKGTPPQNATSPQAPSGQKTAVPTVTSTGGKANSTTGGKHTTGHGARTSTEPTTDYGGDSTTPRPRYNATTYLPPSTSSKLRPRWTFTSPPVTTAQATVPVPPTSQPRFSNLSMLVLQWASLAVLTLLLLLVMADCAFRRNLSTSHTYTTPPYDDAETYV
Method: To assess the ability of purified anti-gp350 mAb to detect surface expression of EBV gp350 protein by flow cytometry, CHO cells that stably express EBV gp350 were harvested and stained with purified anti-gp350 (10 μg/ml), followed by AF488 goat anti-mouse IgG secondary antibody. Flow cytometric analysis was performed on a C-6 FC (BD Biosciences) and data was analyzed using FlowJo Cytometry Analysis software (FlowJo, LLC) as described (47). All the experiments were independently repeated three times.
These novel antibodies were analyzed by flow cytometric analysis for surface expression of gp350 protein on 10^6 CHO cells transfected with 1 μg of pCAGGS-gp350. gp350 expressing cells were resuspended in PBS, stained with anti-gp350 mAb, which detects the gp350 ED, followed by secondary Ab goat anti-mouse conjugated to AF488. Additionally, western blot analysis was conducted on untransfected and pCAGGS-gp350 transfected CHO lysate. Anti-gp350 mAb 72A1 was used as a positive control (1:100) and anti-gp350 hybridoma clone supernatants were used at 1:50, and anti-mouse secondary antibody was used at 1:2000.
Flow cytometric analysis of gp350 and gH/gL specificity was performed. CHO wild type cells and gp350 or gH/gL-expressing CHO cells were stained with primary antibodies, followed by secondary goat anti-mouse or anti-human conjugated to AF488. Unstained cells and cells stained with secondary goat anti-mouse or anti-human conjugated to AF488 alone, were used as negative controls.

[3] = test system: EBV-eGFP infection of Raji cells; assay: EBV neutralization assay in Raji cells; format: cell-based, Epstein-Barr virus; details: for blocking of EBV infection of Raji cells (in words): protein G and size-exclusion chromatography-purified mAbs, 12.5-100 μg/ml; for neutralization of EBV in Raji cells (in words): spin-column purified mAbs, 12.5, 25, 50 and 100 μg/ml
Method: EBV neutralization assay was performed in Raji cells as previously described (47). Briefly, purified individual anti-gp350 mAbs were incubated with purified AGS-EBV-eGFP (titer calculated to infect at least 8% of HEK293 cells seeded in 100 μl of serum-free DMEM) for 2 hours at 37° C. To represent EBV infection of B cells, the pre-incubated anti-gp350 mAbs/AGS-EBV-eGFP were used to infect 5×10^5 Raji cells seeded in a 96-well plate for 2 hours at 37° C. Neutralizing 72A1 and non-neutralizing 2L10 anti-gp350 mAbs served as positive and negative controls, respectively. Infected cells were washed three times with PBS to remove any unbound viruses and antibodies. Washed, infected cells were incubated in 96-well plates at 37° C. for 48 hours post-infection and the number of eGFP+ (infected) cells was determined using flow cytometry. All dilutions were performed in quintuplicate and the assays were repeated three times. Antibody EBV neutralization activity was calculated as: % neutralization=(EBValone−EBVmAb)/(EBValone)×100.
However, this antibody was recently reported to be a mixture of both functional and non-functional antibodies (50). […] The percentage of eGFP+ cells (percent infection) was determined using flow cytometry as described (47). The nAbs 72A1 and E1D1 were used as positive controls, whereas the anti-gp350 non-neutralizing mAb 2L10 and KSHV gH/gL mAb 54A1 were used as negative controls. Because HB4, HB13, HB15, HB16, HB19, HB21, and HB23 were confirmed to be polyclonal based on isotyping and/or sequence data, they were eliminated from further consideration in the neutralization assay. HB18 was not used in neutralization experiments because it was identical to HB8.
The purified eGFP-tagged-EBV was titered in Raji cells to determine percent EBV infection using a range of volumes (50-250 μl) (FIG. 5A). Then initial neutralization of EBV was conducted in Raji cells using purified mAbs at various concentrations (12.5, 25, 50, and 100 μg/ml).
EBV-eGFP+ cells were enumerated using flow cytometry.

[4] = molecular target: T3, EBV gp350 stably expressed on CHO cells (Epstein-Barr virus, UniProt P03200); assay: Epitope mapping by competitive cell binding assay with biotinylated mAbs; details: for % inhibition of biotinylated nAbs (biotinylated m72A1): biotinylated m72A1 1 μg/ml
T3 construct: stably co-transfected with full-length pCAGGS-gp350/220 and pCI-puro vector; expressed in transfected cells; host or cells: CHO cells
T3 sequence (P03200 whole entry): as above
Method: To evaluate conformation epitope mapping of the selected mAbs, competitive binding assays were conducted using biotinylated mAbs. A one-step antibody biotinylation kit (MACS Miltenyi Biotec) was used to biotinylate the mAbs. Approximately 1×10^5 CHO cells that stably expressed EBV gp350 were incubated for 2 hours with serially diluted ([…]) unlabeled competitor mAbs and non-specific anti-KSHV gH/gL 54A1 mAb. After being washed with PBS, the cells were incubated for 2 hours in the presence of 1 μg/ml biotinylated mAbs. To determine maximum binding, cells in which the biotinylated mAb was added in the absence of unlabeled mAbs were included in the assay. Cells were washed with PBS, followed by incubation for 1 hour with anti-biotin AF488 at a dilution of 1:500. After the final wash in PBS, cells were resuspended in 1% paraformaldehyde and analyzed by flow cytometry as described above. Percentage of inhibition was calculated as: 100−[(% fluorescent cells with competitor mAb/% fluorescent cells without competitor mAb)×100]. The complete prevention of binding of a biotinylated mAb by its unlabeled counterpart was used as a validation of the assay, as previously described (84).
At least seven unique CD21 binding epitopes on EBV gp350 have been predicted (Table 3).

T1 sequence (P03200 4-863): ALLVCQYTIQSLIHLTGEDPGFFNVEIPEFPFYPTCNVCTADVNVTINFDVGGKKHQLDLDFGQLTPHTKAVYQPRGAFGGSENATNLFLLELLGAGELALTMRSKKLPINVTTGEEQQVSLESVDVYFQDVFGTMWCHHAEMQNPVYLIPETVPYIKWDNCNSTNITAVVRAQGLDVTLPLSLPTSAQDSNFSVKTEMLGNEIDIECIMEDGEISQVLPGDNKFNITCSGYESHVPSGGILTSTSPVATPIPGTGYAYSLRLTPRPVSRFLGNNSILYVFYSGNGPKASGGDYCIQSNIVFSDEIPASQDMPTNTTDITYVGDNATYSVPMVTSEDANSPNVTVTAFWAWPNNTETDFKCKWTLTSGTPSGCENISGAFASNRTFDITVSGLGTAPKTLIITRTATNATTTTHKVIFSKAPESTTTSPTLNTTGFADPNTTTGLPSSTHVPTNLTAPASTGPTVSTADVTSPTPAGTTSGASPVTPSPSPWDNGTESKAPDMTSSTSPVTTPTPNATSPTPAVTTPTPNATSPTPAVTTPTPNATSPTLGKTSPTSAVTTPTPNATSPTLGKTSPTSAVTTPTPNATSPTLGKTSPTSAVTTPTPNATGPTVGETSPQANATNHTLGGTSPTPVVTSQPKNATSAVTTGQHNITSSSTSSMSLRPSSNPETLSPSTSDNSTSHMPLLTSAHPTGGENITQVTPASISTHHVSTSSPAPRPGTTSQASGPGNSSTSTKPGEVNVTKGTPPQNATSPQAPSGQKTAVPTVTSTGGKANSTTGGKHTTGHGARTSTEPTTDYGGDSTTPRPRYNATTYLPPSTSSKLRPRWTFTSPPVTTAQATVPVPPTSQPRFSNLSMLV

Row | Molecule | ELISA binding to purified EBV gp350/220 [1] | type of gp350 epitope recognized (linear / conformational) [2] | blocking of EBV infection of Raji cells (in words) [3] | neutralization of EBV in Raji cells (in words) [3] | competitive binding versus m72A1 and h72A1 (in words) ([4]; biotinylated antibodies) | % inhibition of biotinylated nAbs (biotinylated m72A1) ([4]; unlabeled mAb 67.5 μg/ml) | % inhibition of biotinylated nAbs (biotinylated m72A1) ([4]; unlabeled mAb 125 μg/ml) | % inhibition of biotinylated nAbs (biotinylated m72A1) ([4]; unlabeled mAb 250 μg/ml) | % inhibition of biotinylated nAbs (biotinylated m72A1) ([4]; unlabeled mAb 500 μg/ml)
1 | HB17: murine anti-EBV gp350 mAb, IgG2b κ; SEQ ID NO: 126 / 127; non-nAb (antibody, V domains shown, heavy chain mAb HB17; light chain mAb HB17, murine anti-EBV gp350 mAb, IgG2b κ; non-nAb) VH: AELVIPGASVKVSCKASGYTFTSYWIHWVKQWPGQGLEWIGEINPNNGHTNYNEKFKSKATLTVDKSSSTAYMQLSSLTSEDSAVYYCARNLFYYSRPDYWGQGTSVTVSSAKTTPPSVYPLAPGCGDTTGSSVTLG VL: SSLSASLGDRVTISCRASQDIGNYLNWYQQKPDGTIKLLIYYTSRLHSGVPSRFSGSGSGTDYSLTISNLEEEDIATYFCQQGNTLPPTFGGGTKLEIKRADAAPTV | + | recognized both linear and conformational epitopes | Neither HB17, HB22, nor 54A1 blocked EBV infection | failed to neutralize EBV infection | little to no competitive binding | – | – | – | –
2 | HB3: murine anti-EBV gp350 mAb, IgG2a κ; SEQ ID NO: 106 / 107 (antibody, V domains shown, heavy chain mAb HB3; light chain mAb HB3) VH: AELVRPGASVKLSCKASGYTFASYWMQWVKQWPGQGLEWIGEINPNNGHTNYNERFKNKASLTVDKSSSTAYMQLSSLTSEDSAVYYCARNLYYYGRPDYWGQGTSVTVSSAKTTAPSVYPLAPVCGDTTGSSVTLG VL: SSLSASLGDRVTISCRASQDIGNYLNWYQQKPDGTIKLLIYYTSRLHSGVPSRFSGSGSGTDYSLTISNLEEEDIATYFCQQGNTLPPTFGGGTKLEIKRADAAPTV | + | only recognized conformational epitopes | – | failed to neutralize EBV infection | – | – | – | – | –
3 | HB9: murine anti-EBV gp350 mAb, IgG2a κ; SEQ ID NO: 116 / 117 (antibody, V domains shown, heavy chain mAb HB9; light chain mAb HB9) VH: GGLVKPGGSLKLSCAASGFTFSSYTMSWVRQTPEKRLEWVATISSGGSYIYYPDSVKGRFTISRDNAKNTLYLQMSSLKSEDTAIYYCTREDFYYGSSYGFFDVWGAGTTVTVSSAKTTAPSVYPLAPVCGDTTGSSVTLG VL: LSLPVSLGDQASISCRSSQSIVHSNGNTYLEWYLQKAGQSPKLLIYKVSNRFSGVPDRFGGSGSGTDFTLKISRVEAEDLGVYYCFQGSHVPYTFGGGTKLEIKRADAAPTV | + | recognized both linear and conformational epitopes | – | failed to neutralize EBV infection | – | – | – | – | –
4 | HB22: murine anti-EBV gp350 mAb, IgG1 κ; SEQ ID NO: 130 / 131; non-nAb (antibody, V domains shown, heavy chain mAb HB22; light chain mAb HB22, murine anti-EBV gp350 mAb, IgG1 κ; non-nAb) VH: PGLVAPSQSLSITCTVSGFSLTNYGIHWVRQPPGKGLEWLVVIWSDGSTIYNSALKSRLSISKDNSKSQVFLKMNSLQTDDTAMYYCARNYYGNSYPAWFAYWGQGTLVTVSAAKTTPPSVYPLAPGSAAQTNSMVTLG VL: LSLPVSLGDQASISCRSSQSIVHSNGNTYLEWYLQKPGQSPKLLIYKVSNRFSGVPDRFSGSGSGTDFTLRISRVEAEDLGVYYCFQGSHVPWTFGGGTKLEIKRADAAPTV | + | – | Neither HB17, HB22, nor 54A1 blocked EBV infection | dose-dependent neutralization | – | 9% | 16% | 3% | 10%
5 | HB2: murine anti-EBV gp350 mAb, IgG2a κ; SEQ ID NO: 104 / 105 (antibody, V domains shown, heavy chain mAb HB2; light chain mAb HB2) VH: PELKKPGETVKISCKASGYTFTAYSMHWVKLTPGKGLKWMGWINTKTGEPTYADDFKGRFAFSLETSASTAYLQINNLKNEDTATYFCAPYGYALDYWGQGTSVTVSSAKTTPPSVYPLAPGSAAQTNSMVTLG VL: AILSASPGEKVTMTCRATSSVNYMHWYQQKPGSSPKPWIYATSNLASGVPARFSGSGSGTSYSLTISRVEAEDAATYYCQQWSSNPPTFGAGTKLELKRADAAPTV | + | only recognized conformational epitopes | – | failed to neutralize EBV infection | – | – | – | – | –

— patent US12012446B2, “Epstein-Barr virus antibodies and uses thereof” (priority 2017, dated 2024)
